Target: human c-type lysozyme purified from human neutrophils (HL) (human) (UniProt P61626)
UniProt P61626, sequence (P61626 19-148): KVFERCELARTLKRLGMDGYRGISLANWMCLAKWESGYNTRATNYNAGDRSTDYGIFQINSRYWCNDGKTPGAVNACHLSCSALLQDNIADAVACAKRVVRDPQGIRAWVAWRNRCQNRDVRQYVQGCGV

recombinant, mature Neisseria gonorrhoeae Adhesin Complex Protein (rACP) (natural protein)
percent of HL hydrolytic activity restored in the presence of rACP by pooled terminal RO serum (polyclonal) of mice immunized with rACP alone: 19.3%
percent of HL hydrolytic activity restored in the presence of rACP by pooled terminal RO serum (polyclonal) of mice immunized with rACP+CpG: 59.9%
percent of HL hydrolytic activity restored in the presence of rACP by pooled terminal SV serum (polyclonal) of mice immunized with rACP alone: 30.1%
percent of HL hydrolytic activity restored in the presence of rACP by pooled terminal SV serum (polyclonal) of mice immunized with rACP+CpG: 75.2%

From PMC12045373
